Measured values taken from patent US20040248211A1, “ICAM-related protein” (priority 1992, published 2004).

B1: ICR-1.1: anti-ICAM-R monoclonal antibody, IgG2a, domain 1, ATCC HB 11053 (antibody, V domains shown)
VH: QVQLQQSGAELAKPGASVKMSCKASGYTFTVYWMHWVKQRPGQGLEWIGYINPNTDYTEYNQRFQDKATLTADKSSSTAYMQLSSLTSEDSAVYYCARWGGNSYGLDYWGQGTSVTVSS
VL: QIVLTQSPALMSASPGEKVTMTCSASSSVSYIYWYQQKPRSSPKPWIYLTSNLASGVPARFSGSGSGASYSLTISIMEAEDAATYYCQQWKSIPLTFGAGTKLELK
B2: ICR-8.1: anti-ICAM-R monoclonal antibody, IgG1, domain 1, ATCC HB 11232 (antibody, V domains shown)
VH: EIQLQQTGPELVKPGASVKISCKASGYSFTDCIILWVKQSHGKGLEWIGKINPYFGTTTYNLKFKGKATLTVDKSSSTAHMQLNSLTSEDSAVYYCARKEAYPDAMDYWGQGTSVTVSS
VL: DAVMTQTPLSLPVSLGDQASISCRSSQSLVHSNGDTYLHWYLQKPGQSPQLLIYKVSNRFSGVPDRFSGSGSGTDFTLKLSRVEAEDLGVYFCSQSTHVPYTFGGGTKLEIK

Tests used:
[1] = molecular target: T1, Protein 1 (ICAM-R domain 1 fused to ICAM-1) (Homo sapiens, UniProt P05362+P32942, A175T/A179V/A227S/A249V/A265P/D143G/D183H/D240V/E159K/E168G/E234D/F135L/F230V/G202E/M196L/M262R/P127S/P187N/P238T/Q133K/Q164E/Q197R/R211Y/R214Q/R224Q/S145A/S149N/S162K/S180R/S236Q/T148A/T242S/V205E/V220A/W157G/W237G/Y255H); experiment: FACS binding to COS cell transfectants; conditions: for percent positive COS cell transfectants, Protein 1: antibody 5.0 ug/ml
T1 construct: immunoglobulin-like domain of ICAM-R (residues 1 to 93) fused to ICAM-1 (residue 117 to 532); ICAM-1 residue 117 to 532 (fusion partner in the same polypeptide); expressed in transfected cells; host or cells: COS cells, plasmid pcDNA1Amp.RD1.ID2-5
T1 sequence (P32942+P05362 fused with the stated changes): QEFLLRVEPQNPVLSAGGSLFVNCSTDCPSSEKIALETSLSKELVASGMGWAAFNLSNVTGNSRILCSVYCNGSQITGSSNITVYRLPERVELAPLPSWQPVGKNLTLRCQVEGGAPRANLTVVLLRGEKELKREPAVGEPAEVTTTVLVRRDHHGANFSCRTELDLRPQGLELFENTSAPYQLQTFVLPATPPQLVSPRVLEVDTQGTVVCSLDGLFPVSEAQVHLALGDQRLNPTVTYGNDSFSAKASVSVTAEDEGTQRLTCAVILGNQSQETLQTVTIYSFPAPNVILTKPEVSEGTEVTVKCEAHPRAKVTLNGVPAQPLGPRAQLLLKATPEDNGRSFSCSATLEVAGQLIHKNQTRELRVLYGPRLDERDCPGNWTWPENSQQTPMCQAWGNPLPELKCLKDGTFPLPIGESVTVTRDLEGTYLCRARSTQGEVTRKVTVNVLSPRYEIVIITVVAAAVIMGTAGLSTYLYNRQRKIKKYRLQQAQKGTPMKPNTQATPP
Source text: (§1) FIG. 7 is a diagram of the chimeric proteins whose construction is outlined below. Protein number 1 contains the amino-terminal immunoglobulin-like domain of ICAM-R (residues 1 to 93) fused to ICAM-1 (residue 117 to 532). Protein number 2 contains the first two amino terminal immunoglobulin-like domains of ICAM-R (residues 1 to 190) fused to ICAM-1 (residues 216 to 532). Protein number 3 contains the first three immunoglobulin-like domains of ICAM-R (residues 1 to 291) fused to ICAM-1 (residues 317 to 532).
(§2) For the anti-ICAM-R monoclonal antibody binding assay, COS cells transfected with constructs encoding the ICAM-R chimeric proteins or control constructs were removed from the plates by EDTA treatment and aliquoted at 2.5×10^5 cells per well in a 96-well round bottom plate. Cells were washed 3 times with ice cold washing buffer (PBS containing 1% BSA and 0.05% sodium azide). Anti-ICAM-R monoclonal antibody was applied at 5.0 ug/ml in 50 ul final volume and incubated on ice for 30 minutes. Cells were then washed three times with cold washing buffer and incubated with the FITC labeled secondary antibody (sheep anti-mouse IgG F(ab′)2) at a 1:100 dilution on ice for 30 minutes in dark in 50 ul final volume. After the incubation, cells were washed again for three times in the ice cold washing buffer and resuspended in 200 ul of 1% paraformaldehyde. The samples were analyzed on a Becton-Dickinson FACScan instrument. Results of the assay are given below in Table 5 as percent positive COS cell transfectants, wherein MOPC 21 (IgG1) and UPC 10 (IgG2a) are isotype matched controls, 18E3D is an ICAM-1 specific monoclonal antibody and ICR-1.1 to ICR-9.2 are ICAM-R specific monoclonal antibodies. The reactivities of monoclonal antibodies ICR-1.1 through ICR-9.2 were assayed in a different experiment than monoclonal antibodies ICR-12.1 through ICR-17.1.

[2] = molecular target: T2, Protein 2 (ICAM-R domains 1-2 fused to ICAM-1) (Homo sapiens, UniProt P05362+P32942, A227S/A249V/A265P/D240V/E234D/F230V/M262R/P219L/P238T/R224Q/S236Q/T242S/V220A/W237G/Y255H); experiment: FACS binding to COS cell transfectants; conditions: antibody 5.0 ug/ml
T2 construct: domains of ICAM-R (residues 1 to 190) fused to ICAM-1 (residues 216 to 532); ICAM-1 residues 216 to 532 (fusion partner in the same polypeptide); expressed in transfected cells; host or cells: COS cells, plasmid pcDNA1Amp.RD1-2.1D3-5
T2 sequence (P32942+P05362 fused with the stated changes): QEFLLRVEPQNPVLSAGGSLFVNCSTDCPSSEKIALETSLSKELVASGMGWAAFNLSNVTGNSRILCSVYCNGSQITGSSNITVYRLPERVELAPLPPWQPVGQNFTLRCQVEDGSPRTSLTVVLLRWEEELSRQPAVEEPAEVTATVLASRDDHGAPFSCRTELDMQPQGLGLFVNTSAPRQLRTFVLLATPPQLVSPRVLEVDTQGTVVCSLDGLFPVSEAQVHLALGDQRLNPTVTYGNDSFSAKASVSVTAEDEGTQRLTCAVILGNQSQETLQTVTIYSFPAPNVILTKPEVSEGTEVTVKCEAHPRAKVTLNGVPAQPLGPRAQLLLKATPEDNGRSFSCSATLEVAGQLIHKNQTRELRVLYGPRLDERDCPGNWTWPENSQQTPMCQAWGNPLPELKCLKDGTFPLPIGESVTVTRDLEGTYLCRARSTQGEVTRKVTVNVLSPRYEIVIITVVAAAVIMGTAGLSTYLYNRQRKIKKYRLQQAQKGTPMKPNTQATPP
Source text: as §1, §2

[3] = system: PBMC responder and irradiated stimulator cells; experiment: Alloantigen-induced lymphocyte proliferation; assay type: cell-based, human
Procedure: Monoclonal antibodies to ICAM-R were also tested for the ability to alter lymphocyte proliferation (as measured by ^3H-thymidine incorporation) in response to alloantigenic irradiated stimulator cells. Responder cells were prepared by obtaining PBMC from a normal donor using Histopaque centrifugation as described above. To prepare stimulator cells, PBMC from a second, unrelated donor were concurrently isolated and irradiated at 1500R by exposure to a gamma emitting cesium source. Two hundred thousand responder cells and 2×10^5 irradiated stimulator cells (suspended in culture medium) were then added to wells containing soluble or immobilized ICR-1.1, ICR-2.1, ICR-3.1, ICR-4.2, ICR-5.1, ICR-6.2, ICR-7.1, ICR-8.1, ICR-9.2, immobilized B-H9, immobilized p10.1, or soluble 515F (anti-rat CD18) antibody and incubated for 6 days at 37° C., 5% CO2. Lymphocyte proliferation (^3H-thymidine incorporation) was assessed in the last 18-24 hours of culture.

[4] = system: Monocytes; experiment: IL-8 release from monocytes; assay type: cell-based, human; conditions: wells coated 10 μg/ml
Procedure: Monocytes were isolated by elutriation from peripheral blood of normal donors. […] After blocking free sites, the cells were placed into the wells in medium. […] Those cells plated in wells treated with BSA plus or minus LPS were rounded and not spread. After 8 or 18 hours of incubation at 37° C., the medium was removed and assayed for IL-8 immunoreactivity. […] By 18 hours, IL-8 levels in media from ICR monoclonal antibody wells were much elevated over control levels. […] Similar experiments with monocytic cell lines (U937 and HL60) to determine if ICR monoclonal antibody can induce IL-8 release were conducted. U937 cells responded to each of the ICR monoclonal antibody treated wells by releasing IL-8 into the conditioned medium. […] No detectable morphological changes were detected with the U937 or HL60 cells.

[5] = system: Monocytes; experiment: MCP-1 release from monocytes; assay type: cell-based, human; conditions: for release of MCP-1 into conditioned medium: 8 and 18 hour time points
Procedure: Monocytes were isolated by elutriation from peripheral blood of normal donors. Plastic wells were coated with ICR-1.1, 2.1, 8.1 or albumin alone (10 μg/ml). After blocking free sites, the cells were placed into the wells in medium. After 1 hour in culture, the cells that were in the ICR Mab treated wells had flattened onto the substratum. Those cells plated in wells treated with BSA plus or minus LPS were rounded and not spread. After 8 or 18 hours of incubation at 37° C., the medium was removed and assayed for IL-8 immunoreactivity. […] By 18 hours, IL-8 levels in media from ICR monoclonal antibody wells were much elevated over control levels. ICR-1.1 induced levels increased ten times, ICR-2.1 induced levels were four times and ICR-8.1 induced levels were two times over the levels seen at the 8 hour time point. Similar experiments with monocytic cell lines (U937 and HL60) to determine if ICR monoclonal antibody can induce IL-8 release were conducted. U937 cells responded to each of the ICR monoclonal antibody treated wells by releasing IL-8 into the conditioned medium. […] No detectable morphological changes were detected with the U937 or HL60 cells.
Monocytes isolated and treated as described above were tested for release of MCP-1 at 8 and 18 hour time points. […] MCP-1 release elicited by ICR-1.1 peaked at 8 hours. Release from Mab ICR-2.1 and ICR-8.1 was not detected until 18 hours when it was 4-fold greater than the peak 1.1 induction level.

Molecule	recognition of hybrid with only ICAM-R domain 1 (domain 1 specific) [1]	percent positive COS cell transfectants, Protein 1 [1]	percent positive COS cell transfectants, Protein 2 [2]	Blockade of Lymphocyte Activation Alloantigen [3]	alloantigen proliferation, immobilized antibody ([3]; 6 days)	IL-8 level at 18 hours over the level at the 8 hour time point [4]	time of peak MCP-1 release [5]	release of MCP-1 into conditioned medium [5]	alloantigen proliferation, soluble antibody ([3]; 6 days)	MCP-1 release at 18 hours relative to the peak ICR-1.1 induction level ([5]; not detected until 18 hours)
B1	recognize the hybrid molecule	60.27%	68.32%	YES	consistently reduced proliferation	ten times	8 h	induced release of MCP-1	–	–
B2	recognize the hybrid molecule	57.34%	64.25%	YES	consistently reduced proliferation	two times	–	induced release of MCP-1	inhibited alloantigen-stimulated proliferation	4 fold
